Data published in patent US7229788.

Experiments:
[1] = system: SHELδ26A (SHEL lacking the sequence of exon 26A)
[2] = system: serine protease site peptide (SPS-peptide), N-AAKAQLRAAAGLGA-C
[3] = system: SHEL (synthetic human elastin; recombinant human tropoelastin splice form)
[4] = system: GST-SHEL (glutathione S-transferase fusion of SHEL)
Sequence of GST-SHEL (glutathione S-transferase fusion of SHEL) (chain, as listed by the source): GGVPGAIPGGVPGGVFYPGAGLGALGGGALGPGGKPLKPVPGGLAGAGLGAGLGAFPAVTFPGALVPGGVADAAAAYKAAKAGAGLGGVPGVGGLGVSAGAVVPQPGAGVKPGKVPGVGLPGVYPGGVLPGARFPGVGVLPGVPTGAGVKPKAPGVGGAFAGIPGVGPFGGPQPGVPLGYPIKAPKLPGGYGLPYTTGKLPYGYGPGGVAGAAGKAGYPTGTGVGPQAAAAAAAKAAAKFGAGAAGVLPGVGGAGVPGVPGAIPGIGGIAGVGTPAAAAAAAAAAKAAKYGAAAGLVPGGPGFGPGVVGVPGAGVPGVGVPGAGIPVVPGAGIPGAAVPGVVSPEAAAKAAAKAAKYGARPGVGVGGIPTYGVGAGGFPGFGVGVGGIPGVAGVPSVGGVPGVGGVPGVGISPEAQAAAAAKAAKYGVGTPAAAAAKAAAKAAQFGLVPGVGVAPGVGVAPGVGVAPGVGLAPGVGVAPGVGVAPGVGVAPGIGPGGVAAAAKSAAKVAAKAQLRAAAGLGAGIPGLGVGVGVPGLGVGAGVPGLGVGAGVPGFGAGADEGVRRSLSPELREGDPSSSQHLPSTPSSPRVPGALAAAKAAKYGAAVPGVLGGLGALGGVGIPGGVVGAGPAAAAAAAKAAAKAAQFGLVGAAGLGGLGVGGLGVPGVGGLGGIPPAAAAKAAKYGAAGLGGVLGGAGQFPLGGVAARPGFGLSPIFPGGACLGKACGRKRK

Sequence of human plasma kallikrein (Sigma) (chain, as listed by the source): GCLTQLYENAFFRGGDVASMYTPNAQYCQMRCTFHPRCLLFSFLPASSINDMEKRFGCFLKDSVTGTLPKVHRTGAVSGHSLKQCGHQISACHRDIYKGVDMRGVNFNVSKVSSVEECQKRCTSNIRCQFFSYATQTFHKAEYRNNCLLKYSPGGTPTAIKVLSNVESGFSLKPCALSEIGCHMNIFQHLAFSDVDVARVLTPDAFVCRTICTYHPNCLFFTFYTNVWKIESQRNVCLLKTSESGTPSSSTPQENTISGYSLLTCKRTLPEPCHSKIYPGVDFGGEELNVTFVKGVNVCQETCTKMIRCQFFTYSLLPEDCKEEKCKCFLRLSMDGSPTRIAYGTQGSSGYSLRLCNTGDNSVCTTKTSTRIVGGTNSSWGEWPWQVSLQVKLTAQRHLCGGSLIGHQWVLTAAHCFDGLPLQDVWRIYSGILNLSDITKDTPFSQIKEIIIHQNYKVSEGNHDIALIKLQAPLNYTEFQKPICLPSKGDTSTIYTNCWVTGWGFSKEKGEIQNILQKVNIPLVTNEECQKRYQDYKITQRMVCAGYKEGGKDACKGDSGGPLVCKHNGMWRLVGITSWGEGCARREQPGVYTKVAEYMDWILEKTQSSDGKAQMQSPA
Sequence of SHEL (synthetic human elastin; recombinant human tropoelastin splice form) (chain, as listed by the source): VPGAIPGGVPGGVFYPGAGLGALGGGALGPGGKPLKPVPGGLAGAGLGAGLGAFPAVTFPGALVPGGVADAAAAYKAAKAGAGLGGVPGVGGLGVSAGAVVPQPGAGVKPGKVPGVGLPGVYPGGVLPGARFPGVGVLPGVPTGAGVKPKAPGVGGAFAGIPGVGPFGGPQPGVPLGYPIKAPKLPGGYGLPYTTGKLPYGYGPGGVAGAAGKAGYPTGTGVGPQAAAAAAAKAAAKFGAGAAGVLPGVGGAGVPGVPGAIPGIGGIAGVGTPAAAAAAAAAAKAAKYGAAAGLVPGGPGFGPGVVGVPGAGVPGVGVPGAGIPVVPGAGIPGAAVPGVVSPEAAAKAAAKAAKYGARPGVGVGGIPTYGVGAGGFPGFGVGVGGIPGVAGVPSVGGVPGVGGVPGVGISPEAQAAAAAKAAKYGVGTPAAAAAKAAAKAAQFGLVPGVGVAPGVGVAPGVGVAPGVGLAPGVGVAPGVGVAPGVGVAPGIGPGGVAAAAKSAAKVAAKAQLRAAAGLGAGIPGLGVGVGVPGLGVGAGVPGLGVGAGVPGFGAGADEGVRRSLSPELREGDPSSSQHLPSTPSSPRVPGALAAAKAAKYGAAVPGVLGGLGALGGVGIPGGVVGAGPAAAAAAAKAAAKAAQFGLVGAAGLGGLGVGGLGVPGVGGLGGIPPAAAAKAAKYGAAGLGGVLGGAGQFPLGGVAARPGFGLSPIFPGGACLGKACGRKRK
Sequence of SHELδ26A (SHEL lacking the sequence of exon 26A) (chain, as listed by the source mutant): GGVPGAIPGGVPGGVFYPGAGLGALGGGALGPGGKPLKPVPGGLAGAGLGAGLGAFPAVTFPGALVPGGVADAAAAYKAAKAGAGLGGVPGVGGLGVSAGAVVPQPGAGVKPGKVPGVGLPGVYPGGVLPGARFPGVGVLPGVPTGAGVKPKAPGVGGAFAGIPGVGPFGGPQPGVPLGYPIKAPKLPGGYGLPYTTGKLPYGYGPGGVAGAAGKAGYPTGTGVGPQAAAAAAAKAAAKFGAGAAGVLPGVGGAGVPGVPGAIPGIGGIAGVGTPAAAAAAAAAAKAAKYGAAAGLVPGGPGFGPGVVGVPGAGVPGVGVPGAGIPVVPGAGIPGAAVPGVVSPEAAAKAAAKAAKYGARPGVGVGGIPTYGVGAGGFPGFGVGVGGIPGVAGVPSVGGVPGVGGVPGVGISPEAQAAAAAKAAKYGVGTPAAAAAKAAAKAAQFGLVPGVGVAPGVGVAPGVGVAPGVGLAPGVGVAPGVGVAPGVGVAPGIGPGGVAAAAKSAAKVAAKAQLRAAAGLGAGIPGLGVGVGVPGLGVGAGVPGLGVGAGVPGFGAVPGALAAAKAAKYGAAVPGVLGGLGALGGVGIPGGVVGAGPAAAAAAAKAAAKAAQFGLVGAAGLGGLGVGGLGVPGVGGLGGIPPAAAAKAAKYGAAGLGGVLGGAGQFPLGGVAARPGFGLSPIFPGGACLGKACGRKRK

Row | Substance | degradation of SHELδ26A by human plasma kallikrein, SDS-PAGE [1] | amount of full-length SHEL after kallikrein digestion with a 100:1 molar excess of SPS-peptide, SDS-PAGE and densitometry (also seen with SHELδ26A, not shown) [2] | degradation of SHEL by human plasma kallikrein, SDS-PAGE [3] | degradation of SHELδ26A by thrombin, SDS-PAGE [1] | cleavage of GST-SHEL by thrombin, SDS-PAGE [4] | amount of full-length SHEL after thrombin digestion with SPS-peptide, SDS-PAGE and densitometry [2] | degradation of SHEL by thrombin, SDS-PAGE [3]
1 | human plasma kallikrein (Sigma) | The pattern of degradation of SHELδ26A was somewhat different, with the 22 and 18 kDa fragments missing and replaced by a 15 kDa fragment | more full-length SHEL was evident compared with controls using trypsin, plasmin, kallikrein and serum | Three major fragments were identified by SDS-PAGE (FIG. 8) estimated to be 45, 22 and 18 kDa | – | – | – | –
2 | human thrombin (Sigma) | – | – | – | The patterns of degradation seen with SHELδ26A was slightly different with the 22 kDa fragment reduced in size to about 15 kDa | Thrombin is able to cleave GST-SHEL extensively and in a reproducible manner | SPS-peptide also resulted in more full-length SHEL using thrombin and HLE but to a lesser extent | four major fragments were identified by SDS-PAGE estimated at 45, 34, 22 and 13 kDa
